Experimental findings from article PMC10001252 are described below.

Experiment [1] concerns the target β-lactoglobulin (bovine) (UniProt P02754). Put plainly: ITC; LF (0.25 mM, syringe) injected into βLG (0.1 mM, cell); 10 mM MES pH 5.5, 15 mM added NaCl, 25 °C; fitted with PyTC.
Experiment [2] shares this target. As to the kind of experiment: ITC; LF (0.25 mM, syringe) injected into βLG (0.1 mM, cell); 10 mM MES pH 5.5, 20 mM added NaCl, 25 °C; fitted with PyTC. In general terms: ITC needs no label: the signal is the heat of the interaction.
Experiment [3] shares this target. As to the kind of experiment: co-sedimentation + other: turbidity; LF-βLG mixtures (total 0.55 mM) prepared at 0, 100, 200 or 400 mM NaCl and desalted by dialysis (24 h) against 10 mM MES pH 5.5, room temperature; coacervate yield after centrifugation at 28,000 g and HPLC of the supernatant.
Experiment [4] has the same target. Put plainly: ITC; LF (0.25 mM, syringe) injected into βLG (0.1 mM, cell); 10 mM MES pH 5.5, 2.5 mM added NaCl, 25 °C; fitted with PyTC.
For experiment [5] the target is unchanged. As to the kind of experiment: ITC; LF (0.25 mM, syringe) injected into βLG (0.1 mM, cell); 10 mM MES pH 5.5, no added NaCl, 25 °C; fitted with PyTC.
Experiment [6] has the same target. As to the kind of experiment: ITC; LF (0.25 mM, syringe) injected into βLG (0.1 mM, cell); 10 mM MES pH 5.5, 5 mM added NaCl, 25 °C; fitted with PyTC.

For the substance lactoferrin (natural protein), the Ka in the experiment with β-lactoglobulin (bovine) [1] came out at 84700 M⁻¹; with β-lactoglobulin (bovine) [2], 33200 M⁻¹; with β-lactoglobulin (bovine) [4] it was 972000 M⁻¹; with β-lactoglobulin (bovine) [5] it was 421000 M⁻¹; with β-lactoglobulin (bovine) [6] it was 275000 M⁻¹. In addition, the dH with β-lactoglobulin (bovine) [1] was -12.1 kcal/mol; in the experiment with β-lactoglobulin (bovine) [2], -8.94 kcal/mol; with β-lactoglobulin (bovine) [4] it was -24.7 kcal/mol; in the experiment with β-lactoglobulin (bovine) [5] it was -18.8 kcal/mol; with β-lactoglobulin (bovine) [6], -14.6 kcal/mol. For the same substance, the coacervate yield in the experiment with β-lactoglobulin (bovine) [3] was in the range of 55 to 65%.
